Experimental data reported in PMC10415144, “Structural insights into CodY activation and DNA recognition” (Nucleic Acids Research, 2023).
Values belong to the substance of their own block, whether it stands above or below them.

Tests used:
[1] = biological target: T1, EfCodY (Enterococcus faecalis) (UniProt Q834K5); assay: BLI; conditions: BLI: 20 mM Tris-HCl pH 8, 150 mM NaCl, 2 mM MgCl2, 0.1% NP-40, 25 C, 2 mM GTP and/or 10 mM Ile/Leu/Val as stated
T1 sequence: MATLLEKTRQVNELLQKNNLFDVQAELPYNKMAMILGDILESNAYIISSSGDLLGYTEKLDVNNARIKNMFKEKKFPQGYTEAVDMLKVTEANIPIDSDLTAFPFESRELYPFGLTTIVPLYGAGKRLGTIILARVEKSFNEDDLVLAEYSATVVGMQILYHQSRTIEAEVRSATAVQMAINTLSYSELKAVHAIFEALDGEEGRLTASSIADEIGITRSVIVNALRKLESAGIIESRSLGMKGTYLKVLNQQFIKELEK

[2] = biological target: Staphylococcus aureus CodY (SaCodY), full length (Staphylococcus aureus) (UniProt Q2FHI3); assay: SEC-MALS; Superdex 75 10/300, 0.4 ml/min; 200 ul of 35 uM CodY, ligand-free, 20 mM Tris-HCl pH 8, 200 mM NaCl

Substance: 26-nt overlapping sites
- Kd [1]: 710 nM

Substance: single 15-nt consensus site
- Kd ([1]; 10 mM Leu (implied), values printed as pair, assigned by order): 706 nM

- stoichiometry N [2]: 2
Substance: Staphylococcus aureus CodY (SaCodY), full length (from UniProt Q2FHI3 1-257) (natural protein)
